Source: patent US20050032694A1

Molecular target: rat agrin (the transmembrane isoform Y4, Z8) (rat) (UniProt P25304)
Test: cell-based or functional assay

UniProt P25304, sequence (P25304 whole entry, canonical isoform): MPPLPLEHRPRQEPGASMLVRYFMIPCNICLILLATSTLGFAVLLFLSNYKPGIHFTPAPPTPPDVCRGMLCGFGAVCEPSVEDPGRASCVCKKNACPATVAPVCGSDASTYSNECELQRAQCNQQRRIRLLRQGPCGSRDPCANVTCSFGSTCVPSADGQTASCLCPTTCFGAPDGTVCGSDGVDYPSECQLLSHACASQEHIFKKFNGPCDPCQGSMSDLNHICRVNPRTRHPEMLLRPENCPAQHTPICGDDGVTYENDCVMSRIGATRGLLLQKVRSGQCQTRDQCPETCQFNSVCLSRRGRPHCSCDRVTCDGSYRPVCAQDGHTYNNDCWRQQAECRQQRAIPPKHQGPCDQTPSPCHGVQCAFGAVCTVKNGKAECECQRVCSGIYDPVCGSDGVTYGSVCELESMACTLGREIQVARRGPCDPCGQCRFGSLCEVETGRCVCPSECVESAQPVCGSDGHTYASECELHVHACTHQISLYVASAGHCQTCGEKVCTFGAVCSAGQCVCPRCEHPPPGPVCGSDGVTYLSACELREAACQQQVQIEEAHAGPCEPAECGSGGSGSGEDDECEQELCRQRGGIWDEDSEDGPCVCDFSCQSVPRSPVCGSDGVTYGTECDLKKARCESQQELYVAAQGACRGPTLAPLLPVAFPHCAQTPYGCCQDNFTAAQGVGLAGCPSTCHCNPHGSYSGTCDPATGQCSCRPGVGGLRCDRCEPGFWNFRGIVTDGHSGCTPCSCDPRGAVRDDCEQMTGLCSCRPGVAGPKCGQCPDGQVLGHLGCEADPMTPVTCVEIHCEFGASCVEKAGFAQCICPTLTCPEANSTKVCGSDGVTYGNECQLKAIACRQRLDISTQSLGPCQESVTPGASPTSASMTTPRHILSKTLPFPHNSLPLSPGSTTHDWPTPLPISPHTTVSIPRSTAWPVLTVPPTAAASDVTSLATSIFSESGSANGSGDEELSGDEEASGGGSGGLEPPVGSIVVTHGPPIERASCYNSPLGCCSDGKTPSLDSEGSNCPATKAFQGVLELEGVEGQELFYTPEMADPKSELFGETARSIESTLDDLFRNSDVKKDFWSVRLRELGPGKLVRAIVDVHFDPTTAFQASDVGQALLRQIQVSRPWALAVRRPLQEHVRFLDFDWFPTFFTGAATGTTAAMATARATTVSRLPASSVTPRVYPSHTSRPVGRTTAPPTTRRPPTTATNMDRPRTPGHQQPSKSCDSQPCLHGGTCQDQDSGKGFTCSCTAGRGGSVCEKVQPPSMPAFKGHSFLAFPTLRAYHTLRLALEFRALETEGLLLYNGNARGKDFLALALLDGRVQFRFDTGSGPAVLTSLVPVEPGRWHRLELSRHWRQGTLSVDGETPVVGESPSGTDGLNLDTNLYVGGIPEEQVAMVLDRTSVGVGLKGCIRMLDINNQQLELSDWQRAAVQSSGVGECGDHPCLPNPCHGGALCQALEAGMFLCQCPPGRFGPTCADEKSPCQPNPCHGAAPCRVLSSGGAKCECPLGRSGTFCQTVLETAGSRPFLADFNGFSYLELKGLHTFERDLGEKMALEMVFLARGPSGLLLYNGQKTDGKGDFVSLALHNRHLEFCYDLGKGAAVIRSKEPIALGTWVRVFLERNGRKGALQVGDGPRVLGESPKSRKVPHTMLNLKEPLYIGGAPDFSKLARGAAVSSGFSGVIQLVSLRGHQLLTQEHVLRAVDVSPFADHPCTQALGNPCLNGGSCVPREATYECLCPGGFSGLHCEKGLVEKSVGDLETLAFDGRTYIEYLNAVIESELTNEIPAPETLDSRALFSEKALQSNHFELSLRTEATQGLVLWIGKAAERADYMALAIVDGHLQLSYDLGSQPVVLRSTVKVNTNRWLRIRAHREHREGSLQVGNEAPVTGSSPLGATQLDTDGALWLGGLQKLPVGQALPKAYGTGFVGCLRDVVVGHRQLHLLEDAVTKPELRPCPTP

For “neurotrypsin of the mouse (compound of the formula II) (from UniProt O08762 22-761) (enzyme)”, the soluble agrin fragment in culture medium of co-transfected HEK293T cells (Western blot) was 100 kDa.
